The values that follow come from US20220098240A1 (FUJIFILM, published 2022).

B1: Cyclic peptide 18 (peptide)
peptide: {CH2CO}-ICRGDK(COCH2)F[hCys]KKK
modifications: thioether 2-6 via Ac; thioether N-8; not fully specified
notes: bicyclic; all residues L; immobilised on CM5 chip through amino groups
B2: Cyclic peptide 20 (peptide)
peptide: {CH2CO}-ICRGD[Dab](COCH2)F[hCys]KKK
modifications: thioether 2-6 via Ac; thioether N-8; not fully specified
notes: as for B1
B3: Cyclic peptide 14 (peptide)
peptide: {CH2CO}-I[Dap](COCH2)RGDCF[hCys]KKK
modifications: thioether 2-6 via Ac; thioether N-8; not fully specified
notes: as for B1
B4: Cyclic peptide 24 (peptide)
peptide: {CH2CO}-E[Orn]RGD[hCys]F[Pen]KKK
modifications: thioether N-8; bridge 2-6; not fully specified (residue 2, bridges); printed as E RGD- -F-(Pen)-KKK
B5: Cyclic peptide 48 (peptide)
peptide: {CH2CO}-KCRGDCFCKKK
modifications: disulfide 2-6; thioether N-8
notes: bicyclic comparative peptide; all residues L; immobilised on CM5 chip through amino groups
B6: Cyclic peptide 26 (peptide)
peptide: XXRGDXFXKKK
modifications: not fully specified; thioether: L1 alpha-NH2 through acetyl to Hcy8; thioether: Hcy2 to K(acetyl)6
B7: Cyclic peptide 49 (peptide)
peptide: ACDCRGDCFCGKKK
modifications: disulfide 2-10, 4-8
notes: as for B5
B8: Cyclic peptide 8 (peptide)
peptide: {CH2CO}-ICRGD[Dab](COCH2)FCKKK
modifications: thioether 2-6 via Ac; thioether N-8
notes: as for B1
B9: Cyclic peptide 17 (peptide)
peptide: {CH2CO}-I[hCys]RGDK(COCH2)FCKKK
modifications: thioether 2-6 via Ac; thioether N-8; not fully specified
notes: as for B1
B10: Cyclic peptide 12 (peptide)
peptide: XCRGDXFCKKK
modifications: not fully specified; thioether: I1 alpha-NH2 through acetyl to C8; thioether: C2 to K(acetyl)6
notes: as for B1
B11: Cyclic peptide 15 (peptide)
peptide: {CH2CO}-I[Orn](COCH2)RGD[hCys]FCKKK
modifications: thioether 2-6 via Ac; thioether N-8; not fully specified
notes: as for B1
B12: Cyclic peptide 21 (peptide)
peptide: K[Dap]RGD[hCys]F[hCys]KKK
modifications: bridge N-8, 2-6; not fully specified (N-terminus, bridges); printed as K RGD- -F-(Hcy)-KKK

Bridge positions count the residues as written; N and C are the ends. Square brackets hold non-standard residues; d marks the D form. Ends that are not written are not given here. COCH2 = acetyl group that carries the bridge; Pen = CC(C)(S)[C@H](N)C(=O)O; hCys = N[C@@H](CCS)C(=O)O; Orn = NCCC[C@H](N)C(=O)O; Dab = NCC[C@H](N)C(=O)O; Dap = NC[C@H](N)C(=O)O

One test deals with T1, human integrin αvβ5 (human, UniProt P06756 31-992; P18084 24-719).
T1 construct: soluble analyte in SPR at 30, 100, 300 and 1,000 nM in HEPES buffer with 5 mM magnesium chloride; heterodimer of an alpha and a beta chain
T1 sequence (P06756 31-992, chain 1 of 2): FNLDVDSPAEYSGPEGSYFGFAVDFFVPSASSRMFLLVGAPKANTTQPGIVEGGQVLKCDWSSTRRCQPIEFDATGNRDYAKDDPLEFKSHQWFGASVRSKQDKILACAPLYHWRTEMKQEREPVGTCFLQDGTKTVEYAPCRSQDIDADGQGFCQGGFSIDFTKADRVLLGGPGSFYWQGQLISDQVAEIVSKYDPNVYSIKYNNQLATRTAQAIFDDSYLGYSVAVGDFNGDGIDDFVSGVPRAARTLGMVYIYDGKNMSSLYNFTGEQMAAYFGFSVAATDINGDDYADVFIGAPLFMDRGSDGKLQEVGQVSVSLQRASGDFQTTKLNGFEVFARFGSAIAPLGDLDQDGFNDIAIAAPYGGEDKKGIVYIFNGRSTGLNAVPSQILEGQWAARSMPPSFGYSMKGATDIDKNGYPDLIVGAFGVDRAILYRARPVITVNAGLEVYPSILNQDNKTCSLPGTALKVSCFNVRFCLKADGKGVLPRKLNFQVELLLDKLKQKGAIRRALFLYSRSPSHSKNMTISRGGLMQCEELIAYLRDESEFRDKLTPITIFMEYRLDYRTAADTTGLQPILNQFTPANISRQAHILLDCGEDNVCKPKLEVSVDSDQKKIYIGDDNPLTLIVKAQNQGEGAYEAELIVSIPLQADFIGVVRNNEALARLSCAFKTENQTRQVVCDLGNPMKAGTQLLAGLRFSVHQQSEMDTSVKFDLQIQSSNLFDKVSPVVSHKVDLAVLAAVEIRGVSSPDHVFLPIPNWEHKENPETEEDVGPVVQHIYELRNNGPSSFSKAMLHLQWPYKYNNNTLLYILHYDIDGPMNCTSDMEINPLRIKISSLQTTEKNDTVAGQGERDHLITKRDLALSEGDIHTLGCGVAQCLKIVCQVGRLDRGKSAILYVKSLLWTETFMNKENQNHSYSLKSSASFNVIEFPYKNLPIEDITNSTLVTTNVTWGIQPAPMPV
T1 sequence (P18084 24-719, chain 2 of 2): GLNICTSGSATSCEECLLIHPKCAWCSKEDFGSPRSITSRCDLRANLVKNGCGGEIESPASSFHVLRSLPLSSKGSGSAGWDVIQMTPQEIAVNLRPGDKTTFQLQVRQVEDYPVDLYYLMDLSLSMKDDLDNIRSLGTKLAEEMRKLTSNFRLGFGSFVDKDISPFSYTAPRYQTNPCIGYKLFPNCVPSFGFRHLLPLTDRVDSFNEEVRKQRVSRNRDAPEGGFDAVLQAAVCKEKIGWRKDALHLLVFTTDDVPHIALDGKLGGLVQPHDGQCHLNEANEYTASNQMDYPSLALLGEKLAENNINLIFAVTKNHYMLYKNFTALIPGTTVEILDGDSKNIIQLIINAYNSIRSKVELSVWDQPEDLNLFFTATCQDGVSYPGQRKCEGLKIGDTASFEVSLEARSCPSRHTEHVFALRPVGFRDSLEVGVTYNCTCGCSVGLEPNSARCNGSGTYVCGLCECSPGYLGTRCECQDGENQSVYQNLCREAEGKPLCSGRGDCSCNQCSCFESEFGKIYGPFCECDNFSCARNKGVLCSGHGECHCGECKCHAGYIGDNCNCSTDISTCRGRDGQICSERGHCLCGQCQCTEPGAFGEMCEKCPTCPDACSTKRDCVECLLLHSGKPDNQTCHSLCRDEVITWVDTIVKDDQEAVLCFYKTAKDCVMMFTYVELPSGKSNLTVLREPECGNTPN
Put plainly: SPR, Biacore 3000, peptide immobilised on CM5 chip, integrin 30-1000 nM flowed; grade A = dissociation constant 50 nM or less. As for the experimental part:
(§1) However, only for the cyclic peptide 22, in which the number of lysine residues having an amino group as the immobilizing functional group was 1, the sample solution to be supplied to the sensor chip was set to 5,000 μL instead of 300 μL. Similarly, 70 μL of the mixed aqueous solution of 0.2 M EDC and 0.04 M NHS was added to another flow channel of the same sensor chip without immobilizing the sample, and then blocking treatment and washing treatment were carried out. Hereinafter, the obtained immobilization-treated sensor chip is referred to as an “immobilization-treated sensor chip A”.
(§2) After adding human integrin αvβ5 for 10 minutes at 25° C., which was diluted to 30 nM using a HEPES buffer solution to which magnesium chloride was added to 5 mM, in each flow channel of the immobilization-treated sensor chip A prepared in (1) above, the same HEPES buffer solution (containing 5 mM magnesium chloride) was allowed to flow as a running buffer for 30 minutes, and measurement was carried out with Biacore 3000.
(§3) Then, a regeneration treatment of removing human integrin αvβ5 was carried out by allowing a 0.5 M EDTA aqueous solution to flow through each flow channel for 10 minutes. Further, the above-described measurement process consisting of adding integrin for 10 minutes, allowing a running buffer to flow for 30 minutes, carrying out measurement with Biacore 3000, and carrying out regeneration treatment with 0.5 M EDTA aqueous solution was carried out in the same manner for 100 nM human integrin αvβ5, 300 nM human integrin αvβ5, and 1,000 nM human integrin αvβ5. Dissociation constant between the cyclic peptide and human integrin αvβ5 was calculated from the difference between the value measured by Biacore 3000 in the flow channel immobilized with the cyclic peptide and the value measured by Biacore 3000 in the flow channel unimmobilized with the cyclic peptide, in a case where each concentration of human integrin αvβ5 was allowed to flow, and the integrin binding property was evaluated according to the following evaluation standards. It is preferable that the evaluation result satisfies the evaluation standard A, B, or C.
Background: SPR reads the build-up and loss of mass on a sensor chip optically.
For B1, the “dissociation constant (KD)” value is at most 50 nM.

B2: the “dissociation constant (KD)” value was at most 50 nM.

As for B3, the “dissociation constant (KD)” value is at most 50 nM. On to {CH2CO}-D[hCys]RGDK(COCH2)F[hCys]KKK (thioether 2-6, N-8) [Cyclic peptide 29], for which the dissociation constant is below 50 nM. The molecule {CH2CO}-I[Orn](COCH2)RGD[hCys]F[hCys]KKK (thioether 2-6, N-8) [Cyclic peptide 3] came in with a dissociation constant (KD) below 50 nM. In turn, {CH2CO}-T[hCys]RGDK(COCH2)F[hCys]KKK (thioether 2-6, N-8) [Cyclic peptide 27] displayed a dissociation constant below 50 nM. The same measure, in the same setting: under {CH2CO}-D[hCys]RGDK(COCH2)F[hCys]AKKK (thioether 2-6, N-8) [Cyclic peptide 45] stands below 50 nM. B4 registered a dissociation constant (KD) below 50 nM.

For the molecule {CH2CO}-E[hCys]RGDK(COCH2)F[hCys]KKK (thioether 2-6, N-8) [Cyclic peptide 30], the dissociation constant is below 50 nM.

The molecule B5 registered a dissociation constant of at most 50 nM.

Turning to {CH2CO}-I[hCys]RGDK(COCH2)F[hCys]AKKK (thioether 2-6, N-8) [Cyclic peptide 35], the dissociation constant is below 50 nM. On the same count and under the same terms, under B6 stands below 50 nM. The same measure, in the same setting: under {CH2CO}-V[Orn](COCH2)RGD[hCys]F[hCys]KKK (thioether 2-6, N-8) [Cyclic peptide 38] stands below 50 nM; under B7, at most 50 nM. Same read-out and setting: under {CH2CO}-E[hCys]RGD[Orn](COCH2)F[hCys]KKK (thioether 2-6, N-8) [Cyclic peptide 43] stands below 50 nM. {CH2CO}-I[Orn](COCH2)RGD[hCys]F[Pen]KKK (thioether 2-6, N-8) [Cyclic peptide 23] displayed a dissociation constant (KD) below 50 nM. Regarding {CH2CO}-E[Orn](COCH2)RGD[hCys]F[hCys]KKK (thioether 2-6, N-8) [Cyclic peptide 40], the dissociation constant is below 50 nM. For B8, the “dissociation constant (KD)” value was at most 50 nM.

On to B9, for which the “dissociation constant (KD)” value is at most 50 nM. As for {CH2CO}-I[hCys]RGDK(COCH2)F[hCys]KKK (thioether 2-6, N-8) [Cyclic peptide 11], the dissociation constant (KD) was below 50 nM. Still for that read-out and setting: under B10 stands at most 50 nM. The molecule {CH2CO}-V[hCys]RGDK(COCH2)F[hCys]AKKK (thioether 2-6, N-8) [Cyclic peptide 44] came in with a dissociation constant below 50 nM.

{CH2CO}-E[hCys]RGD[Orn](COCH2)F[hCys]AKKK (thioether 2-6, N-8) [Cyclic peptide 47] came in with a dissociation constant below 50 nM. Same read-out and setting: under {CH2CO}-Y[hCys]RGDK(COCH2)F[hCys]KKK (thioether 2-6, N-8) [Cyclic peptide 25] stands below 50 nM. On to B11, for which the “dissociation constant (KD)” value is at most 50 nM. Molecule {CH2CO}-E[hCys]RGDK(COCH2)F[hCys]AKKK (thioether 2-6, N-8) [Cyclic peptide 46] returned a dissociation constant below 50 nM. In turn, {CH2CO}-D[hCys]RGD[Orn](COCH2)F[hCys]KKK (thioether 2-6, N-8) [Cyclic peptide 42] showed a dissociation constant below 50 nM. The same measure, in the same setting: under {CH2CO}-V[hCys]RGDK(COCH2)F[hCys]KKK (thioether 2-6, N-8) [Cyclic peptide 28] stands below 50 nM; under {CH2CO}-D[Orn]RGD[hCys]F[hCys]KKK (thioether N-8; bridge 2-6; not fully specified (residue 2, bridges)) [Cyclic peptide 39], below 50 nM. In turn, {CH2CO}-I[hCys]RGDK(COCH2)F[hCys]K (thioether 2-6, N-8) [Cyclic peptide 22] registered a dissociation constant (KD) below 50 nM.

For another test, the target named is T1, human integrin αvβ5. In words: SPR, Biacore 3000, peptide immobilised on CM5 chip, integrin 30-1000 nM flowed; grade B = dissociation constant more than 50 nM and 100 nM or less. As for the experimental part: as §1, §2, §3
As for KKK[hCys][hCys]RGDK(COCH2)FK(COCH2)A (thioether 4-11, 5-9) [Cyclic peptide 37], the dissociation constant fell in the range of 50 to 100 nM.

In turn, {CH2CO}-I[hCys]RGDK(COCH2)FA[hCys]KKK (thioether 2-6, N-9) [Cyclic peptide 34] showed a dissociation constant of 50 to 100 nM.

In turn, {CH2CO}-I[hCys]RGDK(COCH2)Y[hCys]KKK (thioether 2-6, N-8) [Cyclic peptide 32] gave a dissociation constant of 50 to 100 nM. The molecule {CH2CO}-I[Dap](COCH2)RGD[hCys]F[hCys]KKK (thioether 2-6, N-8) [Cyclic peptide 1] came in with a dissociation constant (KD) of 50 to 100 nM. The same measure, in the same setting: under B12 stands 50 to 100 nM. A[hCys][hCys]RGDK(COCH2)FK(COCH2)KKK (thioether 2-9, 3-7) [Cyclic peptide 36] yielded a dissociation constant of 50 to 100 nM. On the same count and under the same terms, then {CH2CO}-I[hCys]RGDK(COCH2)P[hCys]KKK (thioether 2-6, N-8) [Cyclic peptide 31], with 50 to 100 nM.
